{
  "source": "the DeepSol protein solubility set",
  "data": [
    {"assay": "soluble on expression in E. coli; label from the status in PepcDB or PDB records", "values": [
      {"sequence": "MYATSTQKREWTYTPEKLAAMRLEINIKFRQKYESVMQPDELELFVTPEEELRMQRSIEDAALKFADKFRPHIWPSVKWTALAFFKRAFLVWVPSDTSIRMVMMACFYLAMKIDEFYITIEDFVKNMNVGEPRQNAERILKLEPELMKILDYNLTVHCPYRPYEGHLMDMKTRMLLLNFDLESIRRDSMRFFQNALQTDVLLLYPPSQIALAAINFGLHAQGKSDEILREFLRKLIGIEEDSWAHRDARPEDLEKLEKTVTRVNQIMREVDRNFVAVTEQERENHKSQLARIQALIPALDERRKEQWLAGGGVGLMPGELAEQPVDSDDEIN", "soluble on expression in E. coli": "not soluble"},
      {"sequence": "MESKNKNGDYVIPDSVKNYDGEPLYILVSLWCKLQEKWISRNDIAEAFGINLRRASFIITYISRRKEKISFRVRYVSYGNLHYKRLEIFIYDVNLEAVPIESPGTTGPKRKTYRVGNGIVGQSNIWNEMIMRRKKES", "soluble on expression in E. coli": "not soluble"},
      {"sequence": "MGSDKIHHHHHHMQIRADFDSGNIQVIDASDPRRIRLAIRPDLASQHFQWFHFKVEGMAPATEHCFTLVNAGQSAYSHAWSGYQAVASYDGERWFRVPSQYDADGLHFQLEPEESEVRFAYFEPYSRERHARLVERALGIEGVERLAVGTSVQGRDIELLRVRRHPDSHLKLWVIAQQHPGEHMAEWFMEGLIERLQRPDDTEMQRLLEKADLYLVPNMNPDGAFHGNLRTNAAGQDLNRAWLEPSAERSPEVWFVQQEMKRHGVDLFLDIHGDEEIPHVFAAGCEGNPGYTPRLERLEQRFREELMARGEFQIRHGYPRSAPGQANLALACNFVGQTYDCLAFTIEMPFKDHDDNPEPGTGWSGARSKRLGQDVLSTLAVLVDELR", "soluble on expression in E. coli": "not soluble"},
      {"sequence": "MRILVTNDDGIQSKGIIVLAELLSEEHEVFVVAPDKERSATGHSITIHVPLWMKKVFISERVVAYSTTGTPADCVKLAYNVVMDKRVDLIVSGVNRGPNMGMDILHSGTVSGAMEGAMMNIPSIAISSANYESPDFEGAARFLIDFLKEFDFSLLDPFTMLNINVPAGEIKGWRFTRQSRRRWNDYFEERVSPFGEKYYWMMGEVIEDDDRDDVDYKAVREGYVSITPIHPFLTNEQCLKKLREVYD", "soluble on expression in E. coli": "soluble"},
      {"sequence": "MGFGDLKSPAGLQVLNDYLADKSYIEGYVPSQADVAVFEAVSSPPPADLCHALRWYNHIKSYEKEKASLPGVKKALGKYGPADVEDTTGSGATDSKDDDDIDLFGSDDEEESEEAKRLREERLAQYESKKAKKPALVAKSSILLDVKPWDDETDMAKLEECVRSIQADGLVWGSSKLVPVGYGIKKLQIQCVVEDDKVGTDMLEEQITAFEDYVQSMDVAAFNKI", "soluble on expression in E. coli": "soluble"},
      {"sequence": "MTDSTTLYPVFAEELLPGGGHRSFILKRGELLRLTDLNGNANVSLTLLNAHEKTERLNLPDSLKCQHTAKLSNGHCLYSDMGRVLAAIVTDTCGWSDSIGGVLNAQEVAEKYGQGRYQELRNGFFRNGVDNLLVELGKWGLGLSDLLMTLNLFSRVDVSETGTLHFAPNNSKAGDYIELYAPMDTLVVLTALQHPMDPNPDYVPQPLTLSWMKADASVAEHCRTSRPENERGFINTDRLFALEHHHHHH", "soluble on expression in E. coli": "soluble"},
      {"sequence": "MGSDKIHHHHHHMSIPSTLLGLSGGQFNEIDWSNCAIVMIDFQNEYVDGAMPLGDAGNKATANARLLLYKARNKNIPIFHVAHHGQDNDKIFNPLSSKVDIIDSLQPLDDEKTIIKMHPNAFYDTELQALITSAGKQQIIFAGFMSHMCVSSSVRAAFDLGFESFVCHDACATRDLPSVAGQVITASTVHDSAMAALQDRFAALVATDKLTNS", "soluble on expression in E. coli": "not soluble"},
      {"sequence": "SKNEKEQLSKAKASVSSLNKVIQTKLTVGNLGLGLVVIQNGPYLQISHLINKGAAASDGILQPGDVLISVGHANVLGYTLREFLKLLQNITIGTVLQIKAYRGFLEIPQEWQD", "soluble on expression in E. coli": "soluble"},
      {"sequence": "GPGSMHGIRRWRVRLVNRACQSLSGSLVFSACRHCATVPTEDDVRKAYKILGVHTSATLTDVKKRYGDLAKEHHPDVSNSSAVSSTNRMTDINNAYNTVKQFHQAGRRLFEATRAPNASGASDSSSSSYYSKQDSAYQPWYEDMDPLMYELMWEEMRRQNEEDSFARNMHAEAFYRPNDRWRPPRGNASARPRQSSGSSDGRQSHAGKKSPSSTTWPEEQVKAMVNMYQDGKSFEFIANALGKESAAAVLEEFNRWSSDNQPQRRKGAKPHHARRHRYHGGHGPFYHTESPDEVPFELYEMMEEEPYYDGSSEESGDPFGYYSGDGEAYDVPYTHATPFYGVHQMNGGPAPYGHFEGGVGREYNSSRKMSHRPMRNHRGGPPNKNRRYGGTSSNHKGSGGGFQSGNGKSHGSGGGKT", "soluble on expression in E. coli": "not soluble"},
      {"sequence": "MGSDKIHHHHHHMSDAHYDMHKRNGYSSDEPYPEIKVLGPNKYYAELLMDDYAGVSSEFTSVNQYLYHNFDLDETHRELSEMWINISITEMLHMEILAKTIRLLGGNPVYRGSTSSCGAYWNGGFVCYGNSICNRLKLDLHLEHVAINNYYKDISLIEDPYIKAILNRIILDEKLHVSLFEKAIEKYCK", "soluble on expression in E. coli": "not soluble"},
      {"sequence": "MNLYRSRNFYARIRGDRALFTNPATKGGSERSSYSVPTRQALQGIIDGIYHKPTFTNVITEVKVVNQIQTELHGVRALLHDYSADLSYVSYLSDVEYLVKFHFIWNENREDLIQDRLPKKHEAIMERSIRKGGRRDIFLGTRECFGLVDEISQEEYETIPSYYNGVTIDLGIMFHSFAYPTSKDTPLKSYFTKTVMENGAIKFKPQSECEIVNTLSSYAFKSLGQLKSVDDEYVDDEYEEYEAMEKGEG", "soluble on expression in E. coli": "soluble"},
      {"sequence": "MSDIEAVVVSDLHLGYEEEMNLHGLFLPRIQRDHITSVMDRIIERYNPQRIIINGDFKQEFSKNLPSEWTDVLYFIDRYDDRDLIFIRGNHDNYLATILSKKNIGMMDFYEDDRYFIYHGDRNMGIKKITILGHEHPSLVLRDRVGGVYKLPAFAFNFRRNVIITPSMSFFSSGTDLSQSLLSEEHFTPALKGMKPSCFRIFAITDEFGLVDFGYLDDLHSSGEQQIRDR", "soluble on expression in E. coli": "not soluble"},
      {"sequence": "MTKEEIIKPENLVYKKPTLMNDNPMHYCPGCSHGVVHKLIAEVIEEMGMEDKAIGVSPVGCAVFAYNYLDIDWQEAAHGRAPAVATAIKRLWPGRLVFTYQGDGDLACIGTAETIHALNRGENITIIFINNAIYGMTGGQMAPTTLVGMKTATCPYGRDVAIHGYPLKMTEIAATLEGTAYVTRQAVHTVPAIRKAKKAIRKAFENSMNGKGSNLVEIVSTCNSGWKMTPQASNDWMVEHMFPFYPLGDLKDKE", "soluble on expression in E. coli": "not soluble"},
      {"sequence": "MGSDKIHHHHHHMKYRTVFDIIGPVMIGPSSSHTAGAARIGRVARTLFGQQPERCDIYFYGSFAETYKGHGTDVAIVGGILDFDTFDPRIPRSLQLAKEKGVRVYFHEEEAITDHPNTAKVVLQKGEDQLEVVGVSIGGGKIEIVELNGFHLKLSGNHPAILVVHTDRFGVIASVSNMLAKHEINIGHMEVSRKEKGKEALMVIEVDQNVDDLLLQELERLPNIVTVTKIHD", "soluble on expression in E. coli": "not soluble"},
      {"sequence": "MGSDKIHHHHHHMEFDQAKKIVVATIIDQQGLSDRLVGCKAIITSTGRLSYSIPLAWVRERLEVLIRESLYRGSFEVISLANPNDTRQKATLMIDPYLPPQELIILGGGHIAQPLAKIGKLLGYQVAVLDDRPEFVSKDRFPEADKTICCSFDTVENSFDLGPQSNVVIVTRGHQHDLLCLRQMLKYPLAYLGMIGSRRKVAIIRERLLEEGLAVKKLNSVYMPIGLDIGAQTPAEIAVSITAELIKVRRGGKAASIKNIDKKNNDNEAGVFNLGELPSTIDQEILQLTLQAAINHVPAALATVVSTKGSTPRKAGAHMLVWADGRSLGTVGGGQGEAKVRAEAFKIINTSQPILYRISMDAANAAMEGMICGGSMEVFIEPVNGFAQVSGGGGIL", "soluble on expression in E. coli": "not soluble"},
      {"sequence": "MNYGFNFLHNTIIMMIIRSIIFRNFLFSISQLSQLNNVNTCSIIFHSLFTHFQITSHFTQMAAASSAPHQMQVRVTFYTSHNPQSVLMILKNDQALQQISEKARELFPSADYRLYYGDVNGPIFEFTNSDQIMSKIRITTFSRTPQLFVRLETVPLRPTALPSVSTETAKKASDADRESKSRSSLKRIENNQELTLKTLEKLQKELSRVSALETMVADLHAKEREPVVEEVQKPFPPVKHSASCDACLGDIIGHRFKCLECADYDLCEKCERKSLHYEHAMIRIVEPKKTMIPSYVTSNSPNNVFPTYMQHKIQQPQTIKGINKTVITRLVPSHQVNPAPMPQAPPVSTPVPFPPSPTIGNGAVPKPAQEPRIPPSPTSALPPPQFFNEETRAAIINSAALLKETFSTLSRSFLDLADGAQANMDKKIIERSTMEAGMTKFEEKMDNLKRHCEEKYLGTETAEAEKSEESSKKQADSLSGPKIKKAKKKSCYKKSAERLFTMQLAAAAAEQARLEQEAKKRAEASSAELQRKLAELNVKESQSKSEENIADFVLYDLYGNSLEALLRGRSSSRIADPPTTPNTEPATTELASTTSATPAVTAPASIVPVTPTAPIVETLIVPPLPPVESNPEEVTPMVTAPISIHSSFENISSDFESLSPSWGGYPDLEAAQRLEVIDDNLLDFSDVAVEAQEAQEAQEEARPEPEQSLPPFNEETEKTFDRLLEMGFSYNVTVAAIRANGSNLEMCLQALLH", "soluble on expression in E. coli": "not soluble"},
      {"sequence": "MSQTEPPEDLMQYEAMAQDALRGVVKAALKKAAAPGGLPEPHHLYITFKTKAAGVSGPQDLLSKYPDEMTIVLQHQYWDLAPGETFFSVTLKFGGQPKRLSVPYAALTRFYDPSVQFALQFSAPEIIEDEPEPDPEPEDKANQGASGDEGPKIVSLDQFRKKLEHHHHHH", "soluble on expression in E. coli": "soluble"},
      {"sequence": "MRNSTDYSPLYRSFIGFDHLASLIDKASQPGKQSSYPPYNIELLAENQYRITMAVAGFREEDIDIESKDNGLIIVGTKQPPANSTQESEATTRHFLHQGIAERNFERKFQLGEHVKVIGAFMENGLLHVDLEREIPEALKSRKIAINGKSLLNGNS", "soluble on expression in E. coli": "not soluble"},
      {"sequence": "PNIADKGSVFYHFSATSFDSVDGTRHYRVWTAVPNTTAPASGYPILYMLDGNAVMDRLDDELLKQLSEKTPPVIVAVGYQTNLPFDLNSRAYDYTPAAESRKTDLHSGRFSRKSGGSNNFRQLLETRIAPKVEQGLNIDRQRRGLWGHSYGGLFVLDSWLSSSYFRSYYSASPSLGRGYDALLSRVTAVEPLQFCTKHLAIMEGSATQGDNRETHAVGVLSKIHTTLTILKDKGVNAVFWDFPNLGHGPMFNASFRQALLDISGENANYTAGCHELSH", "soluble on expression in E. coli": "soluble"},
      {"sequence": "MGSDKIHHHHHHGYQFTDVVKVPATPVKNQASTGTCWCFATTSFMESELLRMGKGTYDLSEMFIVRQKYMNQLQDNYVRQGRGNIGQGSLSHTFMNAFNQVGIVPEEVYSGINYDSDRHNHAEMVKYIKAIATTAVDMKKRSPEYYKLIDNLFDTYLGKLPEKFTYQGKEYTPKTFAASLGLNMDDYIELTSFTHHPYYQKFEVEVPDNWEHAQMYNLPLNEMMEVADYALNNGYTVCWDGDVSEKGFSFKNGVAINPEVKKVEDYSTTDRARFEKMDEKERLEEVYKFEKPFPEVNVTPQVRQEGFEAFVTTDDHLMHLTGIAKDQNGTKYYITKNSWGTERNTFGGYLNMSDSFVRAKTIYIMVHKDAIPKAIKSKLGI", "soluble on expression in E. coli": "not soluble"},
      {"sequence": "QLDGLDVYVAGKADVNFLFDRYISTKTELRSTTYSNYLYTWNHFIRDTFGKKKVRDVKYSDVLFFYTDLINNQGLQINTLETINTVLRPTFQLAVRDDIIRKNPVDGAYCEVKKRNGGARKTRRALTVDQQRKFMEYVAKNPFFYHWYPFFVFLLGTGCRIGEAIGIRWDDIDLENRIIDINHSLTYYQRADDSYKCEFRVSLPKTEAGNRRIPMMQQVYDVLQEEYERQKQEGFCVENVDGMTNFVFTNRFGMPHNPAAVNRAIKR", "soluble on expression in E. coli": "not soluble"}
    ]}
  ]
}
